Consider two substances from patent US20190302117.

The kcat is the number of substrate molecules converted per active site and unit of time at saturation. Usually kcat/Km stands for the second-order rate constant that governs catalysis at low substrate concentration. The term Km denotes the substrate concentration at which the rate is half of its maximum.

For series [1], the system named is Peptide 11: DEAIYATVAGGKKK (version of peptide 5 used for the kinetic experiments).
For series [2], the system named is Peptide 10: EDPIYVTLEGGKKK (version of peptide 2 used for the kinetic experiments).

A value given as a limit tells only on which side of the number the result lay.

As to SRC as GST fusion protein, the kcat was over 2 s⁻¹ in series [1] and over 40 s⁻¹ in series [2]. The kcat/Km came to 9500 M⁻¹ s⁻¹ in series [1] and 17500 M⁻¹ s⁻¹ in series [2].
For the substance SYK as GST fusion protein, in series [1], the Michaelis constant (Km) was over 200 µM, the catalytic constant (kcat) was over 0.1 s⁻¹ and the kcat/Km came to 560 M⁻¹ s⁻¹. Besides, in series [2], the 2/5 kcat/Km ratio (peptide 2 against peptide 5) was 1.8, the Km was over 200 µM, the kcat was over 2e-07 s⁻¹ and the kcat/Km came to 1080 M⁻¹ s⁻¹.
